In patent US20140186294A1, “PHAGOCYTIC ACTIVITY AS A MARKER OF SYNUCLEINOPATHIC DISEASE” (ELAN PHARMACEUTICALS, INC., priority 2010, published 2014):
Entries after “also recorded” stand apart in the source; their conditions may differ.

Experiments:
[1] = tested on: synuclein overexpressing microglia; experiment: Bead phagocytosis (phagocytic index) of IL-4 treated microglia from synuclein genomic lines 3, 26, 422; type: cell-based, mouse; conditions: IL-4 24 hours, then beads 90 minutes
Experimental: FIG. 13: Wild type or synuclein overexpressing microglia isolated from line 3, 26, or 422 littermate pups cells were treated for 24 hours with IL-4 and the fed beads for 90 minutes and phagocytic index determined.
To investigate the role of endogenous synuclein on microglia function, we utilized a transgenic mouse model in which wild type or the E46K mutated form of human synuclein was overexpressed from a human bacterial artificial chromosome (bac). The bac construct contained the synuclein promoter and upstream sequences (45 kbp), as well as downstream 3′ sequences ([…]). Three animal lines of interest were identified; line 422 expresses wild type synuclein and two additional lines, line 26 and line 3, express the mutant E46K form. Altered microglia function associated with over expression of human synuclein was assessed in cells isolated from line 26 P1-P3 pups due in part to the high synuclein expression observed in this line. […] Significant overexpression of human synuclein in the murine microglia allowed us to assess the consequence of elevated synuclein levels on microglia function. […] Although the requirement for receptor engagement differs, both targets require activation of intracellular signaling, actin rearrangement, and mobilization of membrane to the phagocytic cup. […]

synuclein mRNA [2] = experiment: Synuclein transcript levels in IL-4 treated human microglia (microarray, qPCR); type: cell-based; conditions: IL-4 24 hours; microglia from three human donors
Experimental: (§1) FIG. 12: Microarray analysis of microglia isolated from three human donors were stimulated with IL-4 for 24 hours and microarray experiment performed and results were confirmed by qPCR. qPCR was also performed on microglia isolated from IL-4 treated line 26/synuclein null pups.
(§2) Human microglia were treated with IL-4 and synuclein transcript levels were measured by microarray and qPCR. Following IL-4 treatment synuclein levels were decreased by 50% in the three donors tested (FIG. 12). […] Microglia from synuclein genomic mice were treated with IL-4 for 24 hours, and while synuclein mRNA levels were decreased, protein levels were unaffected. Synuclein is turned over slowly, therefore 24 hours maybe too soon to see affects. To assess this microglia were stimulated with IL-4 for 48 hr at which time a 50% reduction in synuclein protein levels was observed. […] This may point to a direct effect of IL-4 signaling on the synuclein promoter.

synuclein mRNA [3] = experiment: Synuclein mRNA (qPCR) in IL-4 treated line 26/synuclein null microglia; type: cell-based, mouse
Experimental: as §1, §2

synuclein protein = experiment: Synuclein protein levels in IL-4 treated microglia from synuclein genomic mice; type: cell-based, mouse
Experimental: as §2

SNARE complex = SNARE complex components in lysates of IL-4 treated microglia; type: cell-based, mouse; conditions: IL-4 24 hr; wild type and synuclein OE cells
Experimental: To determine if IL-4 worked in part by altering SNARE or vesicle movement microglia from synuclein genomic mice were treated with IL-4 for 24 hr and lysates were probed for components of the SNARE complex. […] After addition of beads we saw induction of SNARE complexes and these were enhanced following IL-4 treatment.

microglial cells = experiment: Phagocytic activity screening assay, microglial cells; type: cell-based
Experimental: (§3) The components of a screening assay include cells with phagocytic activity, a test agent being screened and an entity that can be phagocytosed. Such an entity can be inert particles, such as latex beads, preferably of size 4-10 microns. The entity can also be apoptotic cells, such as Jurkat cells). Cells and inert entities are phagocytosed by different mechanisms, the former being receptor dependent. Usually the cells are contacted with the test agent first and incubated for a period (e.g., 1-48 hr) before adding the entity to be phagocytosis. Phagocytosis can be followed by light microscopy or flow cytometry among other methods detecting uptake of the entity being phagocytosed into the phagocytic cell. Methods for detection of phagocytosis can include any fluorescent based platform (e.g., flow cytometry, microscopy, array scan, or a Tr-fret, fluorescent plate reader) enzymatic, or colorimetric readout.
(§4) The screening assay can be performed on different types of phagocytic cells in parallel or sequentially. Some agents stimulate phagocytic activity in all or multiple cell types. Other agents may stimulate phagocytic activity in some cells type but not all.

peripheral macrophages = experiment: Phagocytic activity screening assay, peripheral macrophages; type: cell-based
Experimental: as §3, §4

H4 neuronal cells = experiment: Phagocytic activity screening assay, H4 neuronal cells; type: cell-based, human; conditions: H4 neuronal cells (lack an IL-4 receptor)
Source text: The screening and diagnostic assays employ cells with phagocytic activity, sometimes referred to as phagocytic cells. The cells can be human, or other mammalian, particular rodent or mouse. The cells can be obtained from a subject with synucleinopathic disease (usually a human) or a transgenic animal model of disease (e.g., a mouse). The cells can also be a cell line transformed to express an alpha synuclein gene. The cells include microglial cells or peripheral macrophages or polymorphonuclear cells or other phagocytic cells. Microglia can be obtained by biopsy or differentiating or trans-differentiation of embryonic stems cells, bone marrow, induced pluripotent or other stem or pluripotent cell sources from a subject or transgenic animal model. Such phagocytic cells have higher intracellular levels of alpha synuclein that control cells from an undiseased individual. […]
The components of a screening assay include cells with phagocytic activity, a test agent being screened and an entity that can be phagocytosed. […] Methods for detection of phagocytosis can include any fluorescent based platform (e.g., flow cytometry, microscopy, array scan, or a Tr-fret, fluorescent plate reader) enzymatic, or colorimetric readout. […]

B1: IL-4: interleukin IL-4 (Swiss Prot P05112), cytokine used to treat microglia (protein, UniProt P05112 25-153, looked up)
Interleukin-4: HKCDITLQEIIKTLNSLTEQKTLCTELTVTDIFAASKNTTEKETFCRAATVLRQFYSHHEKDTRCLGATAQQFHRHKQLIRFLKRLDRNLWGLAGLNSCPVKEANQSTLENFLERLKTIMREKYSKCSS
- phagocytosis (phagocytic index) [1]: rescue the phagocytic defect
- phagocytosis (phagocytic index) ([1]; listed as 11-4): restored phagocytosis
- reduction in synuclein mRNA levels (synuclein mRNA [2]): 50%
- reduction in synuclein mRNA levels (synuclein mRNA [3]; IL-4 treated line 26/synuclein null pup microglia, qPCR): 50%
- synuclein mRNA levels (synuclein mRNA [3]; line 26/synuclein null genomic microglia, IL-4): reduced synuclein mRNA levels
- synuclein protein levels (synuclein protein; IL-4 for 24 hours): unaffected; also recorded: did not decrease synuclein protein
- reduction in synuclein protein levels (synuclein protein; IL-4 for 48 hr): 50%
- SNARE complex components in lysates (SNARE complex): increased monomer SNAP23 Syntaxin4, and SNAP23 snare complex
- stimulating phagocytic activity (microglial cells): effective
- stimulating phagocytic activity (peripheral macrophages): effective
- stimulating phagocytic activity (H4 neuronal cells): not in H4 neuronal cells
